Measured values as given in publication PMC9477280 (PLoS Pathogens, 2022).

B1: JVA-G1 (VHH)
VHH: SGGGLAQAGGSLKLSCVASGFTFADYAIGWFRQAPGKEREGVACISNSVGSTYYSDSVKGRVTISSDNVKKTVYLQMNSLKPEDTAFYYCALIDHGMNCRNSNGIHYWGKGTLVTVSS
notes: also called αTir-14; JVF-14 (vector name); not shown: thioredoxin, N-terminal, kept; E-tag, C-terminal, kept
B2: JVC-C6 (VHH)
VHH: SGGGLVQAGGSLRLSCAASGVTFVDYATGWFRQAPGKEREGIACISNGASGSFVVNSVKGRFTTSTDNAKNTAYLQMNDLKPEDTATYYCALLGRTGGHCTDPNEYSYWGQGTQVTVSS
notes: also called αTir-4; JVI-1 (vector name); not shown: thioredoxin, N-terminal, kept; E-tag, C-terminal, kept
B3: JVB-C6 (VHH)
VHH: TGGGLVQPGGSLTLSCAASGFSITENAMGWARQVPGKGLEWVSLVYSGGNTYYAESIEGRFTISRDNAKNTVYLRMTSLKPEDTGVYYCAAREAVRVAGPPADVWGQGTQVTVSS
notes: also called αTir-1; JVG-1 (vector name); not shown: thioredoxin, N-terminal, kept; E-tag, C-terminal, kept
B4: JVA-F6 (VHH)
VHH: SGGGLVQAGDSLRLSCVTSGRSFSEAAMGWFRQAPGKERELMTSIGWNGDRTYYADSVKGRFTISRDNAKNTVYLQMNGLTPNDTAVYYCAAAVRASKGYEYWGQGTQVTVSS
notes: also called αTir-11; JVF-7 (vector name); not shown: thioredoxin, N-terminal, kept; E-tag, C-terminal, kept
B5: JVA-C8 (VHH)
VHH: SGGGLVQAGGSLRLSCAASGFTFVDYGIAWVRQAPGKEREGVSCVSTSNRSQWYADSVKGRFTISSDNAKNTVYLQMDNLKPEDTAVYYCTRIDVGDNCRDGGGYRGQGTQVTISS
notes: also called αTir-8; JVF-2 (vector name); not shown: thioredoxin, N-terminal, kept; E-tag, C-terminal, kept
B6: JVA-D11 (VHH)
VHH: SGGGLVQAGGSLRLSCAASGFTFNDYAKAWFRRAPGKEREGISAISSMGESTFYADSVKGRFTISSDSAKNTVYLQMNSLKPEDTAVYYCAADPTVKWGHVLREENYDYWGQGTQVTVVS
notes: also called αTir-12; JVF-8 (vector name); not shown: thioredoxin, N-terminal, kept; E-tag, C-terminal, kept
B7: JVB-G4 (VHH)
VHH: SGGGLVEAGGSLRLSCSASGRASGDGHLGWFGDGALAWFRQAPGKEREYVAAVGHSGTDTYYSDSVKGRFTISRDNAKSMGYLQMDNLRPDDTGIYYCALDLHLGQPGYDYWGQGTQVIVSS
notes: also called αTir-2; JVG-2 (vector name); not shown: thioredoxin, N-terminal, kept; E-tag, C-terminal, kept
B8: JVC-D10 (VHH)
VHH: TGGLVQTGDSLTLSCVVSGRGFCDWAMAWFRQAPGKEREKVSAIGWSGQDTYYSEPAKGRFTISRDNAKNTVWLRMTNLKSEDTAVYYCAAATRAYADYDYWGQGTQVTVSS
notes: also called αTir-5; JVI-2 (vector name); not shown: thioredoxin, N-terminal, kept; E-tag, C-terminal, kept
B9: JVB-G8 (VHH)
VHH: TGGGLVQAGGSLRLSCVASGFTFNDYVLTWFRQAPGKGREGVASISPAFGNTFYADSVKGRFTITSDSAKKQVCLQMNNLKSEDTAVYFCAADPTVNFGPVLRAENYRHWGQGTQVTVSS
notes: also called αTir-3; JVG-3 (vector name); not shown: thioredoxin, N-terminal, kept; E-tag, C-terminal, kept
B10: JVA-A1 (VHH)
VHH: SGGSVEAGDSLRLSCAASGRGFGDGALAWFRQAPGKEREYVAAVGHSGTDTYYADSVKGRFTISRDNAKNMGYLQMDSLRPDDTGVYYCALDLHLGQPGYDYWGQGTQVTVSS
notes: also called αTir-7; JVF-1 (vector name); not shown: thioredoxin, N-terminal, kept; E-tag, C-terminal, kept
B11: JVC-E5 (VHH)
VHH: TGGGTVQAGSSLRLSCTASGFTFTDAAMGWFRQAPGKEREFVAAINWDSANKYYADSVKGRFTISRDNAKNTVYLEMTALKPEDTADYICAGDAKLGHVATSDVWRFWGQGTQVTVSS
notes: also called αTir-6; JVI-3 (vector name); not shown: thioredoxin, N-terminal, kept; E-tag, C-terminal, kept
B12: JVA-E10 (VHH)
VHH: SGGGLVQAGGSLRLSCVASGRTFSDYAMGWFRQAPGKEREFVAAISWNGGSTYYADSVKGRFTISRDNAKNTMYLQMNSLKSEDTAVYYCISEGRGLRQVKTATDWEYWGQGTQVTVSP
notes: also called αTir-13; JVF-12 (vector name); not shown: thioredoxin, N-terminal, kept; E-tag, C-terminal, kept
B13: JVA-D4 (VHH)
VHH: TGGGLAQAGGSLRLSCATSGFTFADYAIGWFRQAPGKEREGVACISTSDNGQYSADSVKGRFTISKDNAKKTVYLQMNSLKPDDTAIYYCHLIDVGSNCRKGKDDGFWGQGTQVTVSS
notes: also called αTir-10; JVF-4 (vector name); not shown: thioredoxin, N-terminal, kept; E-tag, C-terminal, kept
B14: JVA-C9 (VHH)
VHH: TGGGLVQAGGSLRLSCVDSGRTFGDNAMGWFRQAPGKEREYVAAIGYNGDSTYYLNSVKGRFTISRDNAKNTLYLQMNSLQLEDTGVYICAAKTRVTTKEYDFWGQGTQVTVSS
notes: also called αTir-9; JVF-3 (vector name); not shown: thioredoxin, N-terminal, kept; E-tag, C-terminal, kept
B15: JWT-C1 (VHH)
VHH: SGGLVQPGGSLRLSCAASGFTLANSAIGWFRQAPGKGREAVSCISTSAGTTNYASSVKGRFTTARDNAKNMAYLQMDNLKSGDTGVYECAAGWSIDCSGYILPAADVWGQGTQVTVSS
notes: also called αInt-13; JWZ-7 (vector name)
B16: JXF-H9 (VHH)
VHH: SGGGLAQTGGSLRLSCAASGFRLEYYAVGWFRQAPGKEREGVSCLSGSDGSTYNAEFAKGRFTISRDDAKNTVYLLMNSLKPEDTAVYYCAVAGPSDYQCDLGTRWYHRWGQGTVVTVSA
notes: also called αEspA-3; JXM-12 (vector name); not shown: thioredoxin, N-terminal, kept; E-tag, C-terminal, kept
B17: JYB-H6 (VHH)
VHH: TGGGLVQPGGSLRLSCVASGFILDAYTIGWFRQAPGKEREGVASINGSGFSTNYADSVKGRFTISRDNAKNTVWLQMNSLKPEDTAVYYCAAALGLLTPRLESTPFDDWGQGTQVTVSS
notes: also called αEspA-9; JYE-5 (vector name); not shown: thioredoxin, N-terminal, kept; E-tag, C-terminal, kept
B18: JYB-B8 (VHH)
VHH: TGGGLVQPGGSLRLSCAASGFTFSTYWMYWVRQAPGKGLEWVSTIDTGGSDTYYADSVKGRFTISRDNVKNTLYLQMDNLKPEDTALYYCGSSRDIVIVTTLRDFDYWGQGTQVTVFS
notes: also called αEspA-6; JYE-2 (vector name); not shown: thioredoxin, N-terminal, kept; E-tag, C-terminal, kept
B19: JYB-B1 (VHH)
VHH: TGGGLVQAGGSLRLSCAISGFSLGDYAIGWFRQAPEKEREGVAFSGSLGNTYYPDSMKGRFTISRDDAENAVYLEMKNLKPEDTAVYRCTSGGTFDAVVLGLSTYWGQGTQVTVSS
notes: also called αEspA-5; JYE-1 (vector name); not shown: thioredoxin, N-terminal, kept; E-tag, C-terminal, kept
B20: JXF-D8 (VHH)
VHH: SGGALVQPGGSLRLSCAASGINLDYYAIGWFRQAPGKERKGVSCISHVDDDRIYYSDSVKGRFTISRDNAKNTVYLQMNSLEPEDTAVYYCATAGPSDYPCDLELWTYRRWGQGTQVTVSS
notes: also called αEspA-2; JXM-8 (vector name); not shown: thioredoxin, N-terminal, kept; E-tag, C-terminal, kept
B21: JXF-D7 (VHH)
VHH: SGGGLVQTGGSLRLSCSASGFALEYYAVGWFRQAPGKEREGVSCFSGSDGSKFHAQFVKGRFTISLDKEKNTVDLTMNNLKPEDTAVYYCAVAGPSDHQCDLGMTWYHRWGQGTQVTVSS
notes: also called αEspA-1; JXM-6 (vector name); not shown: thioredoxin, N-terminal, kept; E-tag, C-terminal, kept
B22: JYB-H4 (VHH)
VHH: SGGGLVQPGGSLRLSCAASGVTLEYYAIGWFRQVPGKEREGVSCISTSGAGTNYADSVKGRFTISKDNAKNTVYLQMNSLKPEDTAVYYCAARDFTEVPIGGCEWEYDYWGQGTQVTVSS
notes: also called αEspA-8; JYE-4 (vector name); not shown: thioredoxin, N-terminal, kept; E-tag, C-terminal, kept
B23: JXF-C4 (VHH)
VHH: SGGGLVQAGGSLRLSCVAYGRTANTFKEYAMGWFRHNPGEDHEFVGGISQNGDEAYFDDSVKGRFTPSRDNAKNTMYLQMNSLRPEDTAAYYCVAQRSSERLVGDMYSAMDSWGKGTLVTVST
notes: also called αEspA-4; JXM-15 (vector name); not shown: thioredoxin, N-terminal, kept; E-tag, C-terminal, kept
B24: JYB-D1 (VHH)
VHH: TGGGLVQAGGSLRLSCAASGNTFSYTAMAWFRQAPGKQRELVARISSGRGPTKYADSVKGRFTISRDNTLNTVWLQMNDLKPEDTAVYFCNTLKYSGESSYIAGDSWGQGTQVTVSS
notes: also called αEspA-7; JYE-3 (vector name); not shown: thioredoxin, N-terminal, kept; E-tag, C-terminal, kept
B25: JXE-B1 (VHH)
VHH: TGGGLVQAGDSLRLSCAASSGRNFSNYATGWFRQAPGKEQEFVASISRSGRSTYYADSAKGRFTISRDNARNTVYLQMNSLKPEDTADYYCAAHETQWPNGLGWVRGFYDLWGQGTQVTVSS
notes: also called JXK-1 (vector name); not shown: thioredoxin, N-terminal, kept; E-tag, C-terminal, kept
B26: JWU-F3 (VHH)
VHH: SGGGLVQPGGSLRLTCVSSLSDFRLTNMAWYRQTPGSERDVVAGISPNGITSYHASVQDRFNISRDNARKTLFLQMNSLKPEDSGVYYCNIRWGSLLPWGQGTQVTVSP
notes: also called JXA-1 (vector name); not shown: thioredoxin, N-terminal, kept; E-tag, C-terminal, kept
B27: JWU-H4 (VHH)
VHH: TGGGSVQPGGSLRLSCAPSGFSLAYYGVGWFRQAPGKEREALACISRFGDDTYYADSAKGRFTVSRDNAKNTVYLEMNNLKPEDTGVYYCAAGWVVVTDESCGSGDAYNYWGRGTQVTVSS
notes: also called JXA-5 (vector name); not shown: thioredoxin, N-terminal, kept; E-tag, C-terminal, kept
B28: JWS-H4 (VHH)
VHH: SGGGLVQAGGSLRLSCTTSASIFSGYRMGWFRQAPGKQREFVASIADGQNTPYADSVMGRFTISRDNAKNTVYLQMSNLKPEDTAIYYCKSWGYTDWGQGTQVTVSS
notes: also called αInt-12; JWZ-5 (vector name)

Molecular target: T1, EPEC Tir (enteropathogenic E. coli (EPEC), UniProt B7UM99)
T1 construct: also called GST-tagged EPEC Tir; recombinant his-tagged Tir
Assay: ELISA; capture dilution ELISA; plate coated with 5 μg/mL of a non-competing VHH (no thioredoxin, no E-tag), antigen at 1 μg/mL captured for 1 h at 37°C (S1 Fig c-d: EPEC Tir, REPEC Tir); thioredoxin/VHH/E-tag from 125 nM in 1:5 serial dilutions; HRP anti-E-tag; EC50 estimates (apparent affinity); trace = EC50 >125 nM
Conditions: both partners purified

Binder | EC50 [nM]
B1 | 0.2
B2 | 0.2
B3 | 50
B4 | 25
B5 | 0.2
B6 | 0.2
B7 | 0.1
B8 | 0.2
B9 | 0.2
B10 | 10
B11 | 0.2
B12 | 0.2
B13 | 0.5
B14 | 5

Molecular target: T2, EHEC intimin (Escherichia coli O157:H7 EDL933 (EHEC), UniProt P43261)
T2 construct: also called recombinant intimin (EHEC)
Assay: ELISA; dilution ELISA; purified antigen coated directly on Nunc Maxisorp wells, typically 1 μg/mL in PBS overnight at 4°C, blocked with 4% milk in PBS 0.1% Tween; thioredoxin/VHH/E-tag from 125 nM in 1:5 serial dilutions, 1 h 37°C; detected with HRP anti-E-tag; EC50 estimates (apparent affinity); Trace = EC50 >125 nM, poor but detectable
Conditions: both partners purified

Binder | EC50 [nM]
B15 | 0.5

Molecular target: C. rodentium EspA (Citrobacter rodentium ICC168 (parent of …, UniProt D2TKE3))
Assay: as above
Conditions: both partners purified

Binder | EC50 [nM]
B16 | 0.7
B17 | 0.3
B18 | 0.7
B19 | 0.3
B20 | 0.7
B21 | 0.7
B22 | 0.5
B23 | 0.7
B24 | 3

Molecular target: EPEC flagella (Escherichia coli O127:H6 E2348/69 (EPEC), UniProt B7USU2)
Assay: as above
Conditions: both partners purified

Binder | EC50 [nM]
B25 | 0.1
B26 | 0.2
B27 | 10

Molecular target: T3, MC1061 expressing EHEC intimin (Escherichia coli O157:H7 EDL933 (EHEC), UniProt P43261)
T3 construct: also called E. coli 1061/pInt (EHEC); EHEC intimin expressed on the surface of strain MC1061
Assay: ELISA; dilution ELISA with intimin displayed on the surface of E. coli MC1061 as antigen; soluble thioredoxin/VHH/E-tag; EC50 estimates (apparent affinity)
Conditions: one partner purified

Binder | binding result
B28 | binds

Molecular target: T4, MC1061 /EPEC intimin (Escherichia coli O127:H6, JPN15 …, UniProt P19809)
T4 construct: also called E. coli 1061/pInt (EPEC); EPEC intimin expressed on the surface of strain MC1061
Assay: as above
Conditions: one partner purified

Binder | EC50 [nM]
B28 | 10
